In patent US20070178531A1 (BIOCHECK, published 2007):
Numbering of substitutions follows the chain as printed.

T1: Human Id3: Histidine (human, UniProt Q02535 1-119 at identity 1.00))
T1 construct: Fusion protein made in E. coli from vector pGW07; also called h-Id3: His; Human Id3 (coated wells); not shown: His tag
T1 chain: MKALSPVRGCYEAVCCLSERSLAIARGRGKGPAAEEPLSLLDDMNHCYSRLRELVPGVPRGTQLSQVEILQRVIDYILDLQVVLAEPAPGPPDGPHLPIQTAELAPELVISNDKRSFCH

T2: Mouse Id3: Histidine (mouse, UniProt P41133 1-119)
T2 construct: Fusion protein made in E. coli from vector pGW07; also called m-Id3: His; Mouse Id3 (coated wells); not shown: His tag
T2 sequence: T1 chain with G31S, A33S, A34T, A105T, N112K

T3: Mouse Id1: Histidine (mouse, UniProt P20067-2 1-148, limits assumed)
T3 construct: Fusion protein made in E. coli from vector pGW07; also called m-Id1-His; not shown: His tag
T3 sequence (looked up): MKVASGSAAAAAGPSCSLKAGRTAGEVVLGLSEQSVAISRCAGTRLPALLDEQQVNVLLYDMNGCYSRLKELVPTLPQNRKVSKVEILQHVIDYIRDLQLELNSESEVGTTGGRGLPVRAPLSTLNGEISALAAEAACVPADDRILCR

T4: Mouse Id2: Histidine (mouse, UniProt P41136 1-134, limits assumed)
T4 construct: Fusion protein made in E. coli from vector pGW07; also called m-Id2: His; not shown: His tag
T4 sequence (looked up): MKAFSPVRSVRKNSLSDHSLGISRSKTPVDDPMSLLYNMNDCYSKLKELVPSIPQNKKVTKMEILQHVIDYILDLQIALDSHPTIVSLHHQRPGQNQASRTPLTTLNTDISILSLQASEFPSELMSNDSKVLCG

T5: Human Id2: Histidine (human, UniProt Q02363 1-134, limits assumed)
T5 construct: Fusion protein made in E. coli from vector pGW07; also called h-Id2: His; not shown: His tag
T5 sequence (looked up): T4 sequence (looked up) with T60S, V131A

B1: rabbit monoclonal anti-mouse/human Id3, clone #BCH-4/#16-1 (antibody, V domains shown)
VH: QSVEESGGRLVTPGTPLTLTCTASGFSLSSYYIHWVRQAPGKALEWIGYISDGGTTYYASWAKGRFTISKTSSTTVDLKMTSLTTEDTATYFCARQGFNIWGPGTLVTVSL
VL: AVLTQTPSPVSAAVGGTVTISCQSSQSVYNNNWLSWFQQKSGQPPKLLIYETSKLESGVPSRFKGSGSGTQFTLTIIDVQCDDAATYYCLGGYWTTSDNNIFGGGTEVVVK
notes: Rabbit IgG from a rabbit hybridoma; also called m/h Id3 MoAb 16-1
B2: rabbit monoclonal anti-mouse/human Id3, clone #BCH-4/#6-1 (antibody, V domains shown)
VH: B1 VH with S30N, Y31V, A43G, G54D, T56A, Y57R, S60T, D77N
VL: B1 VL with T19S, Y29W, S41P, I77S, I101V
notes: Rabbit IgG from a rabbit hybridoma; also called m/h Id3 MoAb 6-1
B3: rabbit monoclonal anti-mouse/human Id3, clone #BCH-4/#17-3 (antibody, V domains shown)
VH: B1 VH with S30N, Y31V, A43G, G54D, T56A, Y57R, S60T, D77N
VL: B1 VL with T19S, Y29W, S41P, I77S, I101V
notes: Rabbit IgG from a rabbit hybridoma; also called m/h Id3 MoAb 17-3; BCH-3/#17-3
B4: rabbit monoclonal anti-mouse/human Id3, clone #BCH-4/#42-1 (antibody, V domains shown)
VH: B1 VH
VL: B1 VL with T95S
notes: Rabbit IgG from a rabbit hybridoma; also called m/h Id3 MoAb 42-1
B5: rabbit monoclonal anti-human Id3, clone #BCH-4/#3-3 (antibody, V domains shown)
VH: QSVEESGGRLVTPGTPLTLTCTVSGIDLSSYAMSWVRQAPGKGLEWIGVIFPSNNVYYASWAKGRFTISKTSTTVDLKITSPTTEDTATYFCASMGAFDSWGPGTLVTVSS
VL: QVLTQTPSPVSAAVGGTVTINCQASQSIYNDNDLAWFQQKPGQPPKLLIYDASTLTSGVPSRFKGSGSGTQFTLTISDLDCDDAATYYCAARYSGNIYGFGGGTEVVVK
notes: Rabbit IgG from a rabbit hybridoma; also called h Id3 MoAb 3-3

The binders below were run against T6, glutathione S-transferase (GST) (UniProt P08515 1-218 = GST) (assay: ELISA, Ab 0.010 µg/ml).
T6 construct: also called carrier protein GST
T6 sequence (P08515 whole entry): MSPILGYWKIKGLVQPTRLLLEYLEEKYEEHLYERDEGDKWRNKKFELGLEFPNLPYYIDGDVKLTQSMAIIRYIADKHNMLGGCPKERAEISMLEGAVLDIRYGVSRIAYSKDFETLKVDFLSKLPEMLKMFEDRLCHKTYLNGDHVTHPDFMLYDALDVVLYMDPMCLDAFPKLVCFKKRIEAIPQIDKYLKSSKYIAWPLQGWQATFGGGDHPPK

Q: B1 was tested. Which A450 did it give?
A: 0.046 A450

Q: B2 was tested. Which A450 did it give?
A: 0.046 A450

Q: B3 was tested. Which A450 did it give?
A: 0.046 A450

Q: With B4 as the binder, how does the A450 read?
A: 0.045 A450

Q: How did the A450 turn out when B5 was run?
A: 0.045 A450

Molecular target: T1, Human Id3: Histidine
Test: ELISA, Ab 0.250 µg/ml
Experimental: (§1) The rabbit monoclonal anti-human Id3 (clone #3-3) and the rabbit monoclonal anti-mouse/human Id3 (clones #6-1, 16-1, 17-3, and 42-1) produced in Example 6 were tested reactivity against the following antigens: mouse Id1:His, human Id1:His, mouse Id2:His, human Id2:His, mouse Id3:His, human Id3:His, mouse Id4:His, human Id4:His and GST.
(§2) 1. Microtiter wells (prepared in accordance with Example 6) were coated (0.1 μg/well) with mouse Id1:His, human Id1:His, human Id2:His, human Id3:His, and 1.0 μg/well with GST. [0155] 2. Antibody Diluent: 0.25% (w/v) BSA in 0.015M KPO₄ Buffer, 0.85% (w/v) NaCl, 0.1% (w/v) NaN₃, pH=7.40 [0156] 3. Rabbit monoclonal anti-human Id3 (clone #3-3) prepared in Example 7 was diluted to […] with the antibody diluent. […] 4. Rabbit monoclonal anti-mouse/human Id3 (clones #6-1, 16-1, 17-3, 42-1) prepared in Example 7 was diluted to 0.005, 0.010, 0.025, 0.05, 0.10, 0.25, and 0.50 μg/ml with the antibody diluent. […] 5. Conjugate Diluent: 50% (v/v) which consists of an aqueous solution containing Fetal Bovine Serum in 0.05 M Tris, 1% (v/v) Proclin-300, pH 7.6. [0159] 6. Conjugate: Goat anti-rabbit IgG (H+L)-HRP conjugate. [0160] 7. TMB reagent. […] 8. Stop solution (1 N HCI). Method
(§3) 1. Dispense 100 μL of antibody diluent, diluted rabbit monoclonal human Id3, and mouse/human Id3 hybridoma supernatants into appropriate wells. […] 2. Incubate at room temperature with mechanical shaking at 750 rpm for 90 minutes. [0165] 3. Remove the incubation mixture by flicking plate content into an appropriate waste container followed by rinsing the wells 5 times with distilled water. [0166] 4. Strike the wells sharply onto absorbent paper or paper towels to remove all residual water droplets. [0167] 5. Dispense 100 μL of 1:50,000 Goat Anti-Rabbit IgG-HRP Conjugate Reagent into each well. Gently mix for 5 seconds. [0168] 6. Incubate at room temperature with mechanical shaking at 750 rpm for 90 minutes. [0169] 7. Repeat procedures 3 and 4. [0170] 8. Dispense 100 μL of TMB Reagent into each well. Gently mix for 5 seconds. [0171] 9. Incubate at room temperature with mechanical shaking at 750 rpm for 20 minutes. […] 10.

Q: Which A450 does the source give for B1 here?
A: 2.83 A450

Q: Which A450 does the source give for B2 here?
A: 3.02 A450

Q: For B3, which A450 is on record?
A: 3.32 A450

Q: For B4, which A450 is on record?
A: 3.31 A450

The binders below were run against T2, Mouse Id3: Histidine (assay: ELISA, Ab 0.250 µg/ml).
Experimental: as §1, §2, §3

Q: With B1 as the binder, how does the A450 read?
A: 3.21 A450

Q: For B2, which A450 is on record?
A: 3.42 A450

Q: Which A450 does the source give for B3 here?
A: 3.62 A450

Q: How did the A450 turn out when B4 was run?
A: 3.55 A450

Each binder was assayed against T3, Mouse Id1: Histidine (assay: ELISA, Ab 0.250 µg/ml).
Experimental: as §1, §2, §3

Q: For B1, which A450 is on record?
A: 0.047 A450

Q: How did the A450 turn out when B2 was run?
A: 0.048 A450

Q: With B3 as the binder, how does the A450 read?
A: 0.052 A450

Q: How did the A450 turn out when B4 was run?
A: 0.054 A450

Q: With B5 as the binder, how does the A450 read?
A: 0.048 A450

Each binder was assayed against T4, Mouse Id2: Histidine (assay: ELISA, Ab 0.250 µg/ml).
Experimental: as §1, §2, §3

Q: For B1, which A450 is on record?
A: 0.063 A450

Q: For B2, which A450 is on record?
A: 0.062 A450

Q: B3 was tested. Which A450 did it give?
A: 0.064 A450

Q: For B4, which A450 is on record?
A: 0.063 A450

Q: With B5 as the binder, how does the A450 read?
A: 0.051 A450

What follows are binders tested against T5, Human Id2: Histidine (assay: ELISA, Ab 0.250 µg/ml).
Experimental: as §1, §2, §3

Q: How did the A450 turn out when B1 was run?
A: 0.052 A450

Q: Which A450 does the source give for B2 here?
A: 0.056 A450

Q: How did the A450 turn out when B3 was run?
A: 0.054 A450

Q: B4 was tested. Which A450 did it give?
A: 0.051 A450

Q: How did the A450 turn out when B5 was run?
A: 0.054 A450

The binders below were run against T6, glutathione S-transferase (GST) (assay: ELISA, Ab 0.250 µg/ml).
Experimental: as §1, §2, §3

Q: How did the A450 turn out when B1 was run?
A: 0.048 A450

Q: For B2, which A450 is on record?
A: 0.051 A450

Q: For B3, which A450 is on record?
A: 0.052 A450

Q: Which A450 does the source give for B4 here?
A: 0.051 A450

Q: Which A450 does the source give for B5 here?
A: 0.048 A450

Molecular target: T1, Human Id3: Histidine
Test: ELISA, Ab 0.050 µg/ml
Experimental: as §1, §2, §3

Q: For B1, which A450 is on record?
A: 1.4 A450

Q: How did the A450 turn out when B2 was run?
A: 1.61 A450

Q: Which A450 does the source give for B3 here?
A: 1.8 A450

Q: With B4 as the binder, how does the A450 read?
A: 2 A450

Each binder was assayed against T2, Mouse Id3: Histidine (assay: ELISA, Ab 0.050 µg/ml).
Experimental: as §1, §2, §3

Q: Which A450 does the source give for B1 here?
A: 1.57 A450

Q: Which A450 does the source give for B2 here?
A: 1.75 A450

Q: For B3, which A450 is on record?
A: 2.19 A450

Q: With B4 as the binder, how does the A450 read?
A: 2.23 A450

The binders below were run against T3, Mouse Id1: Histidine (assay: ELISA, Ab 0.050 µg/ml).
Experimental: as §1, §2, §3

Q: For B1, which A450 is on record?
A: 0.044 A450

Q: Which A450 does the source give for B2 here?
A: 0.046 A450

Q: B3 was tested. Which A450 did it give?
A: 0.048 A450

Q: With B4 as the binder, how does the A450 read?
A: 0.05 A450

Q: Which A450 does the source give for B5 here?
A: 0.049 A450

What follows are binders tested against T4, Mouse Id2: Histidine (assay: ELISA, Ab 0.050 µg/ml).
Experimental: as §1, §2, §3

Q: With B1 as the binder, how does the A450 read?
A: 0.051 A450

Q: B2 was tested. Which A450 did it give?
A: 0.051 A450

Q: B3 was tested. Which A450 did it give?
A: 0.054 A450

Q: How did the A450 turn out when B4 was run?
A: 0.051 A450

Q: For B5, which A450 is on record?
A: 0.048 A450

These binders were tested against T5, Human Id2: Histidine (assay: ELISA, Ab 0.050 µg/ml).
Experimental: as §1, §2, §3

Q: For B1, which A450 is on record?
A: 0.044 A450

Q: For B2, which A450 is on record?
A: 0.046 A450

Q: For B3, which A450 is on record?
A: 0.049 A450

Q: For B4, which A450 is on record?
A: 0.047 A450

Q: For B5, which A450 is on record?
A: 0.048 A450
